{
  "source": "paper PMC2929022",
  "about": "(Molecular cell, 2010)",
  "binders": {"B1": {"name": "FliM (E. coli) (natural protein, UniProt P06974 1-334, looked up)", "chain": "MGDSILSQAEIDALLNGDSEVKDEPTASVSGESDIRPYDPNTQRRVVRERLQALEIINERFARHFRMGLFNLLRRSPDITVGAIRIQPYHEFARNLPVPTNLNLIHLKPLRGTGLVVFSPSLVFIAVDNLFGGDGRFPTKVEGREFTHTEQRVINRMLKLALEGYSDAWKAINPLEVEYVRSEMQVKFTNITTSPNDIVVNTPFHVEIGNLTGEFNICLPFSMIEPLRELLVNPPLENSRNEDQNWRDNLVRQVQHSQLELVANFADISLRLSQILKLNPGDVLPIEKPDRIIAHVDGVPVLTSQYGTLNGQYALRIEHLINPILNSLNEEQPK"}, "B2": {"name": "FliG (E. coli) (natural protein, UniProt P0ABZ1 1-331, looked up)", "chain": "MSNLTGTDKSVILLMTIGEDRAAEVFKHLSQREVQTLSAAMANVTQISNKQLTDVLAEFEQEAEQFAALNINANDYLRSVLVKALGEERAASLLEDILETRDTASGIETLNFMEPQSAADLIRDEHPQIIATILVHLKRAQAADILALFDERLRHDVMLRIATFGGVQPAALAELTEVLNGLLDGQNLKRSKMGGVRTAAEIINLMKTQQEEAVITAVREFDGELAQKIIDEMFLFENLVDVDDRSIQRLLQEVDSESLLIALKGAEQPLREKFLRNMSQRAADILRDDLANRGPVRLSQVENEQKAILLIVRRLAETGEMVIGSGEDTYV"}},
  "molecular_target": "T1, GST-YcgR-HA fusion (wild-type YcgR of E. coli) (E. coli, UniProt P76010 1-244)",
  "T1 sequence (looked up)": "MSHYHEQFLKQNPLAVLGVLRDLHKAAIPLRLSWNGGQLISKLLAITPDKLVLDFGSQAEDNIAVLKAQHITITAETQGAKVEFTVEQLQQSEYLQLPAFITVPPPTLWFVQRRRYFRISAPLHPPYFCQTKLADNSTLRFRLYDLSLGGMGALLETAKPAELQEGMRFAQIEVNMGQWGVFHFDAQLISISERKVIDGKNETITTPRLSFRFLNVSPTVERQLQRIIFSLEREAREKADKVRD",
  "assay": "pull-down",
  "data": [
    {"binder": "B1", "values": [
      {"measurement": "fold increase of binding with c-di-GMP at 5 μM or higher over no added c-di-GMP", "result": "~2", "unit": "fold"}
    ]},
    {"binder": "B2", "values": [
      {"measurement": "fold increase of binding with c-di-GMP at 5 μM or higher over no added c-di-GMP", "result": "~2", "unit": "fold"}
    ]}
  ]
}
